Laboratory results reported in article PMC3290997 (Biochemistry, 2012).
Like-named read-outs stand apart in the source and are kept apart here. No end group written: not given here. *: point of attachment. Biotin = O=C1N[C@H]2[C@H](CS[C@H]2CCCCC(=O)*)N1; MBP = 4-maleimido-benzophenone

Assays:
SecA [1] = biological target: T1, SecA (E. coli, UniProt P10408 1-901); test: cross-linking
SecA [2] = biological target: T1, SecA; test: cross-linking; remark: listed apart in the source

T1 sequence (P10408 whole entry): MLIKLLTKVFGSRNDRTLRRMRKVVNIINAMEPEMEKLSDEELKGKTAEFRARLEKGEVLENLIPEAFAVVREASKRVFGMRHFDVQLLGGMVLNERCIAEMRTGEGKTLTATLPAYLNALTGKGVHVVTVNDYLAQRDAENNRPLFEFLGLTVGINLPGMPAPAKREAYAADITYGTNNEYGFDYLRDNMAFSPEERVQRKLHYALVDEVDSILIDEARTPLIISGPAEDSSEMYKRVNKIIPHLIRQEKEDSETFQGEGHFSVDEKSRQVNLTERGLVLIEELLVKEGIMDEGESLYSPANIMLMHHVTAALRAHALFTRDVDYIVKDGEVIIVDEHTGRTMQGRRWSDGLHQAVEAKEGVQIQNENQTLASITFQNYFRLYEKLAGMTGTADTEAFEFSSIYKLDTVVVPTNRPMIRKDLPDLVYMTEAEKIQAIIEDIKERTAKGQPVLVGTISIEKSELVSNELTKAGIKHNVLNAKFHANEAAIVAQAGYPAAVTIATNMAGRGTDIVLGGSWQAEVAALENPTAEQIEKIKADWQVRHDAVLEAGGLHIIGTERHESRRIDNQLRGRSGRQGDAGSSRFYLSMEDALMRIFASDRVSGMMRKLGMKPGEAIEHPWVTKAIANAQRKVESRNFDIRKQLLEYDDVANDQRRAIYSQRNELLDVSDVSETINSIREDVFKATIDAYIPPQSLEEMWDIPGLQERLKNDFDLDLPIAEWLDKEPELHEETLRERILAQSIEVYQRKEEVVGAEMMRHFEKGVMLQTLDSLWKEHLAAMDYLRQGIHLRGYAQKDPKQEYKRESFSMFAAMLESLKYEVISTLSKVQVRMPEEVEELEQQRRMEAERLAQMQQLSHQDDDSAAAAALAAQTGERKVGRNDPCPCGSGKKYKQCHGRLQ

Biotin-MMITLRKRRKLPLAVAVAAGVC(MBP)SAQAMA [Bio-KRRLamB19C-MBP]: binds (SecA [1]).

Biotin-MMITLRKRRKLPLAVAVAAGVCSAQAMA [Biotinylated-KRRLamB19C signal peptide]: binds (SecA [2]).
